For orientation: Kd means a measure of binding affinity in units of concentration. Read a low Kd as higher affinity. The term koff denotes the first-order rate constant of dissociation. Read a high koff as fast dissociation. A word on the kon: it is the second-order rate constant of association. Higher therefore signals fast association. Usually EC50 stands for the concentration giving half of the maximal effect. Read a high EC50 as lower potency in that assay.

In assay [1] the target is T1, BCMA-His protein (extracellular region of human BCMA, His-tagged) (human, UniProt Q02223 1-54).
T1 construct: extracellular domain; Made in house and purified on a Ni column; also called human BCMA antigen; recombinant BCMA-His protein; not shown: His tag
T1 sequence (looked up): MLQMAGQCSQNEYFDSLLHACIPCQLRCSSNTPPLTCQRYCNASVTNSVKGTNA
The experiment in a line: SPR (Biacore 8K), BCMA-His captured on NTA chip, nanobody-Fc as analyte, 1:1 binding fit. For orientation: In SPR one partner is held on a chip, and binding of the other changes the refractive index at the surface.

Assay [2] concerns the target T1, BCMA-His protein (extracellular region …). Briefly: ELISA, BCMA-His coated, anti-human IgG1 Fc-HRP detection. Background: In an ELISA, binding on a coated surface is turned into a signal by an enzyme label.
Assay [3] shares this target. The experiment in a line: monoclonal phage ELISA on coated BCMA protein, HA-HRP detection.
Assay [4] has the same target. Briefly: flow cytometry of CAR-T cells stained with BCMA-His and an anti-His tag antibody. (In general: A flow cytometer gives signals particle by particle.)
For assay [5] the target is unchanged. Briefly: flow cytometry (MFI) of transduced K562 cells stained with BCMA-His and an anti-His tag antibody.

B1: Nb003-02-Fc (Fc fusion)
chain: QVQLQESGGGLVQPGGSLRLSCAASGFTFSNYAMSWFRQGPGKERELVAGIDRTGGSTRTADSVQGRFTISRDNAKNKVYLQMNSLKPEDTAVYYCKALRTPGWGTSPDVVGYWGQGTQVTVSS
modifications: biotinylated for the flow cytometry assay only (sites not given)
notes: also called VHH02; not shown: N-terminal SUMO tag from plasmid pET-28a-Sumo-Nb-Fc; human IgG1 Fc tag at the C-terminus
In assay [1], B1 came in with a Kd of 1.79 nM, a koff of 0.00212 s⁻¹ and a kon of 1.19e+06 M⁻¹ s⁻¹. The molecule also gave an EC50 in assay [2] of 0.652 nM.

B2: Nb003-02 (VHH02), monoclonal phage clone (VHH)
VHH: B1 chain
For the molecule B2, the binding result in assay [3] was “binds”.

B3: NMC003-01 (single VHH CAR with VHH01, on CAR-T cells) (other)
chain: QVQLQESGGGSVQPGGSLRLSCKASGFTFSPSAMSWARQAPGKEIEWVSNIYPDGRTYYADSMKGRFTISRDNAENTVYLQMNSLKPEDTAVYYCLIGVGIVAGQVVSPYWGQGTQVTVSSTTPAPRPPTPAPTIASQPLSLRPEACRPAAGGAVHTRGLDFACDIYIWAPLAGTCGVLLLSLVITLYCKRGRKKLLYIFKQPFMRPVQTTQEEDGCSCRFPEEEEGGCELRVKFSRSADAPAYKQGQNQLYNELNLGRREEYDVLDKRRGRDPEMGGKPRRKNPQEGLYNELQKDKMAEAYSEIGMKGERRRGKGHDGLYQGLSTATKDTYDALHMQALPPR
notes: also called NMC003-01 CAR-T
In the case of B3, the binding result in assay [4] is reported as “binds”.

B4: dNMC003-B (dual VHH CAR, VHH01-(G4S)5-VHH02, on K562 or CAR-T cells) (other)
chain: QVQLQESGGGSVQPGGSLRLSCKASGFTFSPSAMSWARQAPGKEIEWVSNIYPDGRTYYADSMKGRFTISRDNAENTVYLQMNSLKPEDTAVYYCLIGVGIVAGQVVSPYWGQGTQVTVSSGGGGSGGGGSGGGGSGGGGSGGGGSQVQLQESGGGLVQPGGSLRLSCAASGFTFSNYAMSWFRQGPGKERELVAGIDRTGGSTRTADSVQGRFTISRDNAKNKVYLQMNSLKPEDTAVYYCKALRTPGWGTSPDVVGYWGQGTQVTVSSTTPAPRPPTPAPTIASQPLSLRPEACRPAAGGAVHTRGLDFACDIYIWAPLAGTCGVLLLSLVITLYCKRGRKKLLYIFKQPFMRPVQTTQEEDGCSCRFPEEEEGGCELRVKFSRSADAPAYKQGQNQLYNELNLGRREEYDVLDKRRGRDPEMGGKPRRKNPQEGLYNELQKDKMAEAYSEIGMKGERRRGKGHDGLYQGLSTATKDTYDALHMQALPPR
notes: T2A-tEGFR follows in the construct and is split off at T2A; also called K562-dNMC003-B; dNMC003-B CAR-T
With B4, the binding result in assay [5] was “binds”.

B5: dNb003-B-Fc (Fc fusion)
chain: QVQLQESGGGSVQPGGSLRLSCKASGFTFSPSAMSWARQAPGKEIEWVSNIYPDGRTYYADSMKGRFTISRDNAENTVYLQMNSLKPEDTAVYYCLIGVGIVAGQVVSPYWGQGTQVTVSSGGGGSGGGGSGGGGSGGGGSGGGGSQVQLQESGGGLVQPGGSLRLSCAASGFTFSNYAMSWFRQGPGKERELVAGIDRTGGSTRTADSVQGRFTISRDNAKNKVYLQMNSLKPEDTAVYYCKALRTPGWGTSPDVVGYWGQGTQVTVSS
modifications: biotinylated for the flow cytometry assay only (sites not given)
notes: not shown: N-terminal SUMO tag from plasmid pET-28a-Sumo-Nb-Fc; human IgG1 Fc tag at the C-terminus
As to B5, in assay [1], the Kd amounted to 1.94 nM, the koff was determined as 0.00245 s⁻¹ and the kon is 1.27e+06 M⁻¹ s⁻¹. The midpoint of the response in assay [2], the EC50, lay at 0.346 nM.

B6: Nb003-01 (VHH01), monoclonal phage clone (VHH)
VHH: QVQLQESGGGSVQPGGSLRLSCKASGFTFSPSAMSWARQAPGKEIEWVSNIYPDGRTYYADSMKGRFTISRDNAENTVYLQMNSLKPEDTAVYYCLIGVGIVAGQVVSPYWGQGTQVTVSS
Take B6: the binding result in assay [3] was “binds”.

B7: Nb003-01-Fc (Fc fusion)
chain: B6 VHH
modifications: biotinylated for the flow cytometry assay only (sites not given)
notes: also called VHH01; not shown: N-terminal SUMO tag from plasmid pET-28a-Sumo-Nb-Fc; human IgG1 Fc tag at the C-terminus
In assay [1], B7 returned a Kd of 62 nM, a koff of 0.000857 s⁻¹ and an association rate constant (kon) of 13800 M⁻¹ s⁻¹. Moreover, in assay [2], a half-maximal response (EC50) required 2.05 nM.

B8: dNMC003-A (dual VHH CAR, VHH02-(G4S)5-VHH02, on K562 or CAR-T cells) (other)
chain: QVQLQESGGGLVQPGGSLRLSCAASGFTFSNYAMSWFRQGPGKERELVAGIDRTGGSTRTADSVQGRFTISRDNAKNKVYLQMNSLKPEDTAVYYCKALRTPGWGTSPDVVGYWGQGTQVTVSSGGGGSGGGGSGGGGSGGGGSGGGGSQVQLQESGGGLVQPGGSLRLSCAASGFTFSNYAMSWFRQGPGKERELVAGIDRTGGSTRTADSVQGRFTISRDNAKNKVYLQMNSLKPEDTAVYYCKALRTPGWGTSPDVVGYWGQGTQVTVSSTTPAPRPPTPAPTIASQPLSLRPEACRPAAGGAVHTRGLDFACDIYIWAPLAGTCGVLLLSLVITLYCKRGRKKLLYIFKQPFMRPVQTTQEEDGCSCRFPEEEEGGCELRVKFSRSADAPAYKQGQNQLYNELNLGRREEYDVLDKRRGRDPEMGGKPRRKNPQEGLYNELQKDKMAEAYSEIGMKGERRRGKGHDGLYQGLSTATKDTYDALHMQALPPR
notes: T2A-tEGFR follows in the construct and is split off at T2A; also called K562-dNMC003-A; dNMC003-A CAR-T
Regarding B8, the binding result in assay [5] is given as “binds”.

Source of the values: patent EP4644418A1 (Hebei Senlang Biotechnology Co. Ltd., dated 2025).
